Experimental data published in article PMC6615313.

The sequences below were run on T1, SigL (sigma54) (Clostridium beijerinckii NCIMB 8052), ORF:07123114 (assay: EMSA). Settings: not stated; EMSA as described previously (ref 21), Cy5-labeled DNA, SigL up to 1500 nM.
T1 sequence: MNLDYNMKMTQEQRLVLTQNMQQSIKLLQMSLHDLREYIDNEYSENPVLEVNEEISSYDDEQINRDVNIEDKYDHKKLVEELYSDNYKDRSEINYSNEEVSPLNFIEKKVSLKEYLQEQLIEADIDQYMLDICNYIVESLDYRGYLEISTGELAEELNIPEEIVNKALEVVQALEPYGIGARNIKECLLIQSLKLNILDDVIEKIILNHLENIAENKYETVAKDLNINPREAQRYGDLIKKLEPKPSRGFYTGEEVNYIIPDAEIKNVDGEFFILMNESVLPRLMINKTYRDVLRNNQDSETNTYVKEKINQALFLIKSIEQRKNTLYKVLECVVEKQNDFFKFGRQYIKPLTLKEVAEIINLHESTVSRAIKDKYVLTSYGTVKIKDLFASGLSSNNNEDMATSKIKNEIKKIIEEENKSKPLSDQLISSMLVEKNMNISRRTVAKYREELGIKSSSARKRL
For “AGCCAGTGGCGATAAGCCAGAAAAGAGTAAGATTCTCAAAATAGGACACTAAGTATGTGTCATAATGGCACATAGTGATTTTAAATGTCTTTTTAACAGGTTTCTTGTTTTTGGTATGGCTTTTGCTTATAAAATATAGTGAATATATTAACAGGTATATGTAAATTTTAATATTGCCATACTATTATAAAAAAGGAGAGATAATTCTTATCGCCACTGGCT (double strand) [butA promoter]”, the binding was “binds”.
For “AGCCAGTGGCGATAAGGGGGAAAATCTTTAAAAGTGTACAAAAAAAACACATATTTTTCTGATTTATTTTATTTAAAAAGGTAAATAGAATTAATAGTAAACAGTTTAAAAAAATAATATTTAAAGAGTTTAGTAGATTTGGAAAAGGTTTTCGACTTTTGGAAAGAAACTTGGCATCCTAATTGCTCTATAAAAAGGTATGAGGAGGGATTATGACTTATCGCCACTGGCT (double strand) [cotX (cotX-gntT) promoter]”, the binding was “binds”.
For “AGCCAGTGGCGATAAGGGTGTACAAAATATAGACATAAATAAAATTGATATATTTAGGAATTGATTACGAAAACCACAATATATAAGGTTTCATGGAAAAAATATGATTGGCATGCTTATTGCTAATAATAAAATTAACGGGAGTAGTAAGTGAACTAATATATATAACTTAATTTTTCCACAATCTTTAGTGCAATGCTATTTGCTATTTAAGGACTTATCGCCACTGGCT (double strand) [crt (crt-bcd-etfAB-moaC) promoter]”, the binding was “binds”.
